Legend:
Test in all cases: ELISA
human CD81 mutant V135L = biological target: T1, human CD81 mutant V135L (human, UniProt P60033 1-236, limits assumed)
T1 construct: as m30; not shown: C-terminal V5 and 6xHis tags
T1 sequence: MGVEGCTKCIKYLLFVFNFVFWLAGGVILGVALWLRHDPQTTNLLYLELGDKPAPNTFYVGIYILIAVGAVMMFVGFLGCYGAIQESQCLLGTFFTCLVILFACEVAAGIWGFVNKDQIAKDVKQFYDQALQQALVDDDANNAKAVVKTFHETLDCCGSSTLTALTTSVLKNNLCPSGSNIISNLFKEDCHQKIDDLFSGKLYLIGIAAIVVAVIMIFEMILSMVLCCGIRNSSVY

human CD81 mutant G158A = biological target: T2, human CD81 mutant G158A (human, UniProt P60033 1-236, limits assumed)
T2 construct: as m30; not shown: C-terminal V5 and 6xHis tags
T2 sequence: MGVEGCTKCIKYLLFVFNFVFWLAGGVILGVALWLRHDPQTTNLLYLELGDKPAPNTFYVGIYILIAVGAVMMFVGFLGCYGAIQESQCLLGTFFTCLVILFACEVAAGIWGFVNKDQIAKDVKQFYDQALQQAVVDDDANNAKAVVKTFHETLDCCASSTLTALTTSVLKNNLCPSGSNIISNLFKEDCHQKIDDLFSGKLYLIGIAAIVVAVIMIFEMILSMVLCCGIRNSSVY

human CD81 mutant A164V = biological target: T3, human CD81 mutant A164V (human, UniProt P60033 1-236, limits assumed)
T3 construct: as m30; not shown: C-terminal V5 and 6xHis tags
T3 sequence: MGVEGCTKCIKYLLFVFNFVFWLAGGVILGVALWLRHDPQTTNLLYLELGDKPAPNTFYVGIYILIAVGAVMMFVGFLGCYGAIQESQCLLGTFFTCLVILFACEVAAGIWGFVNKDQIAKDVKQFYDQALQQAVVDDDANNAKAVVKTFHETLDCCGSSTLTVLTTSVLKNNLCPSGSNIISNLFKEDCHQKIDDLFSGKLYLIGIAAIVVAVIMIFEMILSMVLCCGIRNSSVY

human CD81 mutant H151R = biological target: T4, human CD81 mutant H151R (human, UniProt P60033 1-236, limits assumed)
T4 construct: as m30; also called H151B; not shown: C-terminal V5 and 6xHis tags
T4 sequence: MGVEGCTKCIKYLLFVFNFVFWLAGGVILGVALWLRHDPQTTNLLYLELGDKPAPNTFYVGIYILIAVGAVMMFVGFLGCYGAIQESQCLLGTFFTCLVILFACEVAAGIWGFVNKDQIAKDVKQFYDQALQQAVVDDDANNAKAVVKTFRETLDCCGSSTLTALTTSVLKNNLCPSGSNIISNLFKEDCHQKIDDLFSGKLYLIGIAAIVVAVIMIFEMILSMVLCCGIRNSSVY

human CD81 mutant V169L = biological target: T5, human CD81 mutant V169L (human, UniProt P60033 1-236, limits assumed)
T5 construct: as m30; not shown: C-terminal V5 and 6xHis tags
T5 sequence: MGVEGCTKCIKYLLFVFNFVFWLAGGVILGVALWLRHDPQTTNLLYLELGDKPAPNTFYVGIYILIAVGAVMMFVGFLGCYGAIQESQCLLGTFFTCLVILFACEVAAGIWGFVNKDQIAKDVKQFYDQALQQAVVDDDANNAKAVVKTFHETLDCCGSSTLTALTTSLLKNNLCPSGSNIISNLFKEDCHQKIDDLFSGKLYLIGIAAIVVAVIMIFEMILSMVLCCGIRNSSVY

human CD81 mutant S168T = biological target: T6, human CD81 mutant S168T (human, UniProt P60033 1-236, limits assumed)
T6 construct: as m30; not shown: C-terminal V5 and 6xHis tags
T6 sequence: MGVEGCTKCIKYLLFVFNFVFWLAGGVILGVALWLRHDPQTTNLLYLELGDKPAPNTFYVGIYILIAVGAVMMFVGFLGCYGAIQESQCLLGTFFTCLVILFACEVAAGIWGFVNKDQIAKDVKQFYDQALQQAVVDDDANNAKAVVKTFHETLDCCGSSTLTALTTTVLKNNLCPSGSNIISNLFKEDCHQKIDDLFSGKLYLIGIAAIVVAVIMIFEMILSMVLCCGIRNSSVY

human CD81 mutant H151A = biological target: T7, human CD81 mutant H151A (human, UniProt P60033 1-236, limits assumed)
T7 construct: as m30; not shown: C-terminal V5 and 6xHis tags
T7 sequence: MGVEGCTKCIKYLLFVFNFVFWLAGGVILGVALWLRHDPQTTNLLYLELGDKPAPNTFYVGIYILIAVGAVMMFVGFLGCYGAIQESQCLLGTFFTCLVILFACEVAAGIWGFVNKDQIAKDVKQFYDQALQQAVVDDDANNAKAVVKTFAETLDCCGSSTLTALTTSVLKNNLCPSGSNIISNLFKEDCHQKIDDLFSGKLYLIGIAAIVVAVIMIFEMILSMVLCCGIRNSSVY

human CD81 mutant L170A = biological target: T8, human CD81 mutant L170A (human, UniProt P60033 1-236, limits assumed)
T8 construct: as m30; not shown: C-terminal V5 and 6xHis tags
T8 sequence: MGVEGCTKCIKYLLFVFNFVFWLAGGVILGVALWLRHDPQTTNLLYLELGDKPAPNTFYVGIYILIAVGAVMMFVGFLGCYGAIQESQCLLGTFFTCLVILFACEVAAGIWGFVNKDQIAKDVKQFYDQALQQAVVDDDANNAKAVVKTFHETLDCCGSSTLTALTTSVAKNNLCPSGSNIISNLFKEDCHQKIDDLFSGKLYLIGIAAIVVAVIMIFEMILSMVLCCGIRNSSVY

Measured: relative binding affinity

B1: 002-A07 IgG4 antibody (antibody)
heavy: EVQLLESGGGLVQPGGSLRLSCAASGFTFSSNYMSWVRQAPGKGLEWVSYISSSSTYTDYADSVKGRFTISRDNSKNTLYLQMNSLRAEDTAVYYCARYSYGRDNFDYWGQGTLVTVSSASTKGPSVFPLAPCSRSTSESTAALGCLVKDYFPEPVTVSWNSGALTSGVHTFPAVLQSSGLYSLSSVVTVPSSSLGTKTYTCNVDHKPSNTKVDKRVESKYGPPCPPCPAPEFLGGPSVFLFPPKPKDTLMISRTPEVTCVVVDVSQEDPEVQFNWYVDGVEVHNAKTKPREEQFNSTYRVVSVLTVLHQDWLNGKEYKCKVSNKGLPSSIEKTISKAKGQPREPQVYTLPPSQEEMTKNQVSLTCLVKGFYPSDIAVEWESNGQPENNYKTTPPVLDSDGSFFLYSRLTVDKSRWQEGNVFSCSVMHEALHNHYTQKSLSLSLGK
light: QSVLTQPPSASGTPGQRVTISCTGSTSNIGAGYDTHWYQQLPGTAPKLLIYGNSNRPSGVPDRFSGSKSGTSASLAISGLRSEDEADYYCQSYDTNLSVWVFGGGTKLTVLGQPKAAPSVTLFPPSSEELQANKATLVCLISDFYPGAVTVAWKADSSPVKAGVETTTPSKQSNNKYAASSYLSLTPEQWKSHRSYSCQVTHEGSTVEKTVAPTECS
notes: human IgG4 S228P, lambda light chain
not listed: human CD81 mutant L170A
< 20%: all other assays above

B2: 002-A07 S115A (antibody, human IgG4 S228P, lambda, V domains shown)
VH: EVQLLESGGGLVQPGGSLRLSCAASGFTFSSNYMSWVRQAPGKGLEWVSYISSSSTYTDYADSVKGRFTISRDNSKNTLYLQMNSLRAEDTAVYYCARYSYGRDNFDYWGQGTLVTVSS
VL: QSVLTQPPSASGTPGQRVTISCTGSTSNIGAGYDTHWYQQLPGTAPKLLIYGNSNRPSGVPDRFSGSKSGTSASLAISGLRSEDEADYYCQSYDTNLAVWVFGGGTKLTVLG
notes: IgG4 S228P; glycosylation site mutant of 002-A07 VL
< 20%: all assays above

B3: 002-A07 N113G (antibody, human IgG4 S228P, lambda, V domains shown)
VH: EVQLLESGGGLVQPGGSLRLSCAASGFTFSSNYMSWVRQAPGKGLEWVSYISSSSTYTDYADSVKGRFTISRDNSKNTLYLQMNSLRAEDTAVYYCARYSYGRDNFDYWGQGTLVTVSS
VL: QSVLTQPPSASGTPGQRVTISCTGSTSNIGAGYDTHWYQQLPGTAPKLLIYGNSNRPSGVPDRFSGSKSGTSASLAISGLRSEDEADYYCQSYDTGLSVWVFGGGTKLTVLG
notes: as for B2
< 20%: all assays above

B4: 002-A07 S115G (antibody, human IgG4 S228P, lambda, V domains shown)
VH: EVQLLESGGGLVQPGGSLRLSCAASGFTFSSNYMSWVRQAPGKGLEWVSYISSSSTYTDYADSVKGRFTISRDNSKNTLYLQMNSLRAEDTAVYYCARYSYGRDNFDYWGQGTLVTVSS
VL: QSVLTQPPSASGTPGQRVTISCTGSTSNIGAGYDTHWYQQLPGTAPKLLIYGNSNRPSGVPDRFSGSKSGTSASLAISGLRSEDEADYYCQSYDTNLGVWVFGGGTKLTVLG
notes: as for B2
not listed: human CD81 mutant H151A | human CD81 mutant L170A
< 20%: all other assays above

B5: 002-A07 N113S (antibody, human IgG4 S228P, lambda, V domains shown)
VH: EVQLLESGGGLVQPGGSLRLSCAASGFTFSSNYMSWVRQAPGKGLEWVSYISSSSTYTDYADSVKGRFTISRDNSKNTLYLQMNSLRAEDTAVYYCARYSYGRDNFDYWGQGTLVTVSS
VL: QSVLTQPPSASGTPGQRVTISCTGSTSNIGAGYDTHWYQQLPGTAPKLLIYGNSNRPSGVPDRFSGSKSGTSASLAISGLRSEDEADYYCQSYDTSLSVWVFGGGTKLTVLG
notes: as for B2
< 20%: all assays above

B6: 002-A07 N113Q (antibody, human IgG4 S228P, lambda, V domains shown)
VH: EVQLLESGGGLVQPGGSLRLSCAASGFTFSSNYMSWVRQAPGKGLEWVSYISSSSTYTDYADSVKGRFTISRDNSKNTLYLQMNSLRAEDTAVYYCARYSYGRDNFDYWGQGTLVTVSS
VL: QSVLTQPPSASGTPGQRVTISCTGSTSNIGAGYDTHWYQQLPGTAPKLLIYGNSNRPSGVPDRFSGSKSGTSASLAISGLRSEDEADYYCQSYDTQLSVWVFGGGTKLTVLG
notes: as for B2
not listed: human CD81 mutant L170A
< 20%: all other assays above

B7: 003-D07 (antibody, human IgG4 S228P, lambda, V domains shown)
VH: EVQLLESGGGLVQPGGSLRLSCAASGFTFSSNYMSWVRQAPGKGLEWVSYISSSSTYTDYADSVKGRFTISRDNSKNTLYLQMNSLRAEDTAVYYCARYSYDRDNFDYWGQGTLVTVSS
VL: QSVLTQPFSASGTPGQRVTISCTGSTSNIGAGYDTHWYQHLPGTAPKLLIYGNSNRPSGVPDRFSGSKSGTSASLAISGLRSEDEADYYCQSYDTNLSVWVFGGGTKLTVLG
notes: IgG4 S228P
< 20%: human CD81 mutant V135L | human CD81 mutant A164V | human CD81 mutant H151R | human CD81 mutant V169L
